{
  "source": "paper PMC7495503",
  "target": "T1, Pgi8Cas13b (Porphyromonas gingivalis ATCC 33277, UniProt B2RL97 1-1119)",
  "T1 sequence": "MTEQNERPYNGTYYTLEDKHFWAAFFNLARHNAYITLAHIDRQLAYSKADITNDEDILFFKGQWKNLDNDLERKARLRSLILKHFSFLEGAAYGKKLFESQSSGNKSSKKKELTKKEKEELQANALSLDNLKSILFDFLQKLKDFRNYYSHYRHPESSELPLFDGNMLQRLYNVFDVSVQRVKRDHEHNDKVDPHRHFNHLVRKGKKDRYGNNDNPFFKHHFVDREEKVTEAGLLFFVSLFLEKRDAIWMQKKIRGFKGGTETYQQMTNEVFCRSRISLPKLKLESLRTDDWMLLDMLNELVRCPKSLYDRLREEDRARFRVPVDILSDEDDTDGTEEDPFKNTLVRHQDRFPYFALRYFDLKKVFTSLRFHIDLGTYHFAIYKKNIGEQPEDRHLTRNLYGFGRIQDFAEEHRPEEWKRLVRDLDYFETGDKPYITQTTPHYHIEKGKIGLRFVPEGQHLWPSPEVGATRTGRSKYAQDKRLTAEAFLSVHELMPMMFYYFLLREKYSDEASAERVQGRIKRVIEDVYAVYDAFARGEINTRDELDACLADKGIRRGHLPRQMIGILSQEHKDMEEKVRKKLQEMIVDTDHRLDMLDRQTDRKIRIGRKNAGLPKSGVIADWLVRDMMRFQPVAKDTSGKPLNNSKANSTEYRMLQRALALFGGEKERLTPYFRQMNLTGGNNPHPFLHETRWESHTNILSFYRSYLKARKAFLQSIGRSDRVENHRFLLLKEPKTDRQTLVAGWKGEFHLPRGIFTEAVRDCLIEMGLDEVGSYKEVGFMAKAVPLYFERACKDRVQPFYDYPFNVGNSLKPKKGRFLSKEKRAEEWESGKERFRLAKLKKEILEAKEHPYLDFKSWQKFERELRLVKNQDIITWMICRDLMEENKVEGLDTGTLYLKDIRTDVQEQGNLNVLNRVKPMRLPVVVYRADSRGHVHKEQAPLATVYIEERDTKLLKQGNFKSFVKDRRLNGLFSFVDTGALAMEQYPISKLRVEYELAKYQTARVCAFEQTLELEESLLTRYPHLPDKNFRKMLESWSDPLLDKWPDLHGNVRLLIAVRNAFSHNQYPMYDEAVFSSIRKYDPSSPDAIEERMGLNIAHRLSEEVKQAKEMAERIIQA",
  "experiment": "EMSA",
  "data": [
    {"binder": "Pgi8 crRNA (SP2), Cy5 body-labeled (structured_RNA) RNA: GCAAGUGGAAUUAAUCUUUUUUCUUCUUUACGUUGGAUCUUCCCUCUAUUCGAAGGGUACACACAAC", "values": [
      {"measurement": "Kd", "value": 18, "unit": "nM"}
    ]}
  ]
}
